In patent publication US6037145 one finds enzyme activity after refolding data, which are given here for one substance.

In the test the target is Z-Phe-Leu-Glu-4-nitranilide.

recombinant V8 protease (V8D) (enzyme): the enzyme activity after refolding came to 30 µg/mL.
